From patent publication US20210230254A1 (published 2021)
Residue numbers refer to the chain shown, from its start.

B1: 8ANC50 (antibody, V domains shown)
VH: QGQLVQSGGGVKKPGTSVTISCLASEYTFTEFTIHWIRQAPGQGPLWLGLIKRSGRLMTAYRFQDRLSLRRDRSTGTVFMELRNLRMDDTAVYYCARDGLGELAPAYQYGIDVWGQGTTVIVSS
VL: EIVLTQSPTTLSLSPGERATLSCRASQGVNLVVWYQQKRGQAPRLLIYGPSDRAPGVPDRFSARGSGTEFSLVISSVEPDDFALYYCQEYSSTPYNFGTGTRVDRKR
notes: also called 8ANC50HC; 8ANC50KC
B2: 8ANC14 (antibody, V domains shown)
VH: QVQLVQSGAEVKKPGASVKVSCKVSGYTLTELSIHWVRQAPGKGLEWMGGFDSEDGEAFYKQNFQGRVTMTEDTSTDTAYMELRRLRSEDTAVYYCATADRFKVAQDEGLFVIFDYWGQGTLVTVSS
VL: EIVLTQSPATLSLSPGERATLSCRASQSINNYLAWYQQKPGQAPRLLIYDASNRATGIPARFSGGGSGTDFTLTISSLEPEDFAVYYCQQRANWRLLTFGGGTKVEIKR
notes: also called 8ANC14HC; 8ANC14KC
B3: 8ANC24 (antibody, V domains shown)
VH: QVQLVQSGAEVKMPGASVKVSCKVSGYSLTELSIHWVRQAPGKRLEWMGGFDPEDDERIYAQKFQDRVTMTEDTSTDTAYMDLNSLRSEDTAVYYCTTGGLYCSSISCIMDVWGQGTTVIVSS
VL: EIVMTQSPATLSMSPGERATLSCRASLSVNTNLAWYQQKPGQAPRLLIYGASTRATGIPARFSGSGSGTEFTLTISSLQSEDFALYYCQQYNHWPQTFGQGTKVEIKR
notes: also called 8ANC24HC; 8ANC24KC
B4: 8ANC5 (antibody, V domains shown)
VH: QVQLVQSGAEVRKPGSSLKVSCKSSGGTFSRFVVNWVRQAPGQGLEWMGGMIPIFGIAKYAQKFQDRVTMTADESKNTVYLDFSSLRSDDTAVYYCARDRGDTRLLDYGDYEDERYYYGMDVWGQGTTVIVSS
VL: DIQMTQSPPSLSASVGDRVTITCQASQDINNFLNWYQQKPGKAPRLLIYDASNLESGVSSRFSGSRSGTDFTLTISSLLPEDIATYSCQQYSNLPYTFSQGTKLEIKR
notes: also called 8ANC5HC; 8ANC5KC
B5: 3B41 (antibody, V domains shown)
VH: EVQLVQSGAEVKKPGASVKVSCKVSGYTLTELSMHWVRQAPGKGLEWMGVFDPLEGDGVYAEKFRGRVIMTEDTSTDTGYMELTSLRSEDTAIYYCATKAKDYYYESSDYSPYYYYYMDVWGKGTTVTVSS
VL: EIVLTQSPGTLSLSPGERATLSCRASQSVSSNYLAWYQQKPGQAPRLLIYGASSRATGIPDRFSGSGSGTDFTLSISRLEPEDFAVYYCQQYGTSSCTFGQGTKLEIKR
notes: also called 3B41HC; 3b41kc
B6: 3B27 (antibody, V domains shown)
VH: EVQLVESGGGLVQPGGSLRISCSATGFTFSTHAMHWVRQAPGKGLEYVSAINSNGRSAFYADSVKGRVTISRDNSKNTLFLQMTSLRAEDTAVYYCVKGPLLRYLDSWGQGTLVTVSS
VL: EIVLTQSPATLSVSPGERATLSCRAGQSVSSDLAWYQHKPGQAPRLLIYDASKRATGIPARFSGSGSGTDFTLTISSLEPEDFAVYYCQHRTNWPPSITFGQGTRLEIKR
notes: also called 3B27HC; 3b27kc
B7: 12A12 (antibody, V domains shown)
VH: SQQLVQSGTQVKKPGASVRISCQASGYSFTDYVLHWWRQAPGQGLEWMGWIKPVYGARNYARRFQGRINFDRDIYREIAFMDLSGLRSDDTALYFCARDGSGDDTSWHLDPWGQGTLVIVSA
VL: DIQMTQSPSSLSASVGDRVTITCQAGQGIGSSLQWYQQKPGKAPKLLVHGASNLHRGVPSRFSGSGFHTTFSLTISGLQRDDFATYFCAVLEFFGPGTKVEIKR
notes: also called 12A12HC; 12a12kc
B8: 8ANC131 (antibody, V domains shown)
VH: QGQLVQSGGGLKKPGTSVTISCLASEYTFNEFVIHWIRQAPGQGPLWLGLIKRSGRLMTAYNFQDRLRLRRDRSTGTVFMELRGLRPDDTAVYYCARDGLGEVAPDYRYGIDVWGQGSTVIVTA
VL: B1 VL with T9A, V29L, L31F, Y48H, G49A, D52G, L84I, T99P
notes: also called 8ANC131HC; 8ANC131KC
B9: 8ANC134 (antibody, V domains shown)
VH: B8 VH with L11V, L46V, A60S, N62K, R68S, P87L, D106A, R108L, V113A, A124S
VL: B1 VL with T9A, V29L, L31F, R39G, Y48H, S51T, T99P
notes: also called 8ANC134HC; 8ANC134KC
B10: 1NC9 (antibody, V domains shown)
VH: QVRLVQSGAQLKKPGASVTVSCEASGYNFVNYIINWVRQTPGRSFEWVGMIDPRRGRPWSAQKFQGRLTLTRDIDSEKLYMHLSGLRGDDTAVYYCARQDSDFHDGHGHTLRGMFDSWGQGSPVTVSS
VL: QVLSVSGTPGQRVIISCSGTSSNVGGNLVSWYQHLPGAAPRLLIHRDDQRPSGVPDRFSGSKSGNSASLVISGLRSDDEADYFCAAYDSTFSLPVFGGGTRLTVLS
notes: also called LSSNEC9HC; LSSNEC9LC
B11: 12A21 (antibody, V domains shown)
VH: SQHLVQSGTQVKKPGASVRVSCQASGYTFTNYILHWWRQAPGQGLEWMGLIKPVFGAVNYARQFQGRIQLTRDIYREIAFLDLSGLRSDDTAVYYCARDESGDDLKWHLHPWGQGTQVIVSP
VL: DIQMTQSPSSLSASVGDRVTINCQAGQGIGSSLNWYQKKPGRAPKLLVHGASNLQRGVPSRFSGSGFHTTFTLTISSLQPDDVATYFCAVFQWFGPGTKVDIKR
notes: also called 12A21HC; 12a21kc
B12: 1B2530 (antibody, V domains shown)
VH: QVRLEQSGAAMRKPGASVTLSCQASGYNFVKYIIHWVRQKPGLGFEWVGMIDPYRGRPWSAHKFQGRLSLSRDTSMEILYMTLTSLKSDDTATYFCARAEAASDSHSRPIMFDHWGQGSRVTVSS
VL: QSALTQPPSASGAPGQRVTISCSGGPSNVGGNYVYWYRQFPGTAPTLLILRDDQRPSGVPDRFSASKSGNSASLAISGLRPDDEGFYFCATYDSDGSIRLFGGGTALTVLS
notes: also called LSSB2530HC; LSSB2530LC
B13: 8ANC195 (antibody, V domains shown)
VH: QIHLVQSGTEVKKPGSSVTVSCKAYGVNTFGLYAVNWVRQAPGQSLEYIGQIWRWKSSASHHFRGRVLISAVDLTGSSPPISSLEIKNLTSDDTAVYFCTTTSTYDKWSGLHHDGVMAFSSWGQGTLISVSA
VL: DIQMTQSPSTLAASIGGTVRVSCRASQSITGNWVAWYQQRPGKAPRLLIYRGAALLGGVPSRFSGSAAGTDFTLTIGNLQAEDFGTFYCQQYDTYPGTFGQGTKVEVKR
notes: also called 8ANC195HC; 8ANC195KC
B14: 3BNC60 (antibody, V domains shown)
VH: QVHLSQSGAAVTKPGASVRVSCEASGYKISDHFIHWWRQAPGQGLQWVGWINPKTGQPNNPRQFQGRVSLTRQASWDFDTYSFYMDLKAVRSDDTAIYFCARQRSDFWDFDVWGSGTQVTVSSASTKG
VL: DIQMTQSPSSLSARVGDTVTITCQANGYLNWYQQRRGKAPKLLIYDGSKLERGVPARFSGRRWGQEYNLTINNLQPEDVATYFCQVYEFIVPGTRLDLKRTVAA
notes: also called 3BNC60HC; 3BNC60KC
B15: 3BNC117 (antibody, V domains shown)
VH: B14 VH with H3Q, S5L, K28N, S30R, H32Y, Q73H, Y81F, V90L, I97V, F107Y
VL: DIQMTQSPSSLSASVGDTVTITCQANGYLNWYQQRRGKAPKLLIYDGSKLERGVPSRFSGRRWGQEYNLTINNLQPEDIATYFCQVYEFVVPGTRLDLKRTVAAPSVFIFPPSD
notes: also called 3BNC117HC; 3bnc117kc
B16: 3BNC55 (antibody, V domains shown)
VH: QVQLVQSGTAVKRPGASVRVSCQASGYTFTDYFIYWWRQAPGQGLEWLGWINPLTSQPSYPSRFQGRLTLTRDTFDEMLYMDLRGLRSDDTGIYFCARRHSDYCDFDIWGSGTQIIVSS
VL: DIQMTQSPSSLSASVGDKVTITCQTSAGYLNWYQQRRGRAPKLLMYDGSRLVTGVPSRFSGRRWGTQYNLTIGSLQPEDIATYYCQVYEFFGPGTRLDLKS
notes: also called 3BNC55HC; 3BNC55KC
B17: 3BNC66 (antibody, V domains shown)
VH: QVQLVQSGAALKKPGASLRISCQTYGYKFTDHLIYWWRQAPGQGLEWIGWIKPETGQPSYSYRFQGRVSLTRDTFEEIAFMDLRGLRSDDTAIYFCARRHTDYCVFDVWGSGSQIIVSS
VL: B16 VL with K18T, S26N, A27K, R50K, F59L, S101R
notes: also called 3BNC66HC; 3bnc66kc
B18: 3BNC156 (antibody, V domains shown)
VH: B17 VH with A79V, T101S, V105D, S111G, I115V
VL: B16 VL with K18T, S26N, A27K, R36K, R50K, F59L, S101R
notes: also called 3BNC156HC; 3bnc156kc
B19: NIH45-46 (antibody, V domains shown)
VH: QVRLSQSGGQMKKPGESMRLSCRASGYEFLNCPINWIRLAPGRRPEWMGWLKPRGGAVNYARKFQGRVTMTRDVYSDTAFLELRSLTSDDTAVYFCTRGKYCTARDYYNWDFEH
VL: EIVLTQSPATLSLSPGETAIISCRTSQSGSLAWYQQRPGQAPRLVIYSGSTRAAGIPDRFSGSRWGADYNLSISNLESGDFGVYYCQQYEFFG

target: T1, YU2 gp120 (HIV-1 YU2, UniProt P35961 32-498); experiment: ELISA, column Binding
T1 construct: domain: gp120
Method: (§1) ELISAs. […] After washing, plates were blocked 2 h with 2% BSA, 1 μM EDTA, 0.05% Tween-PBS (Blocking buffer) and then, incubated 2h with IgG antibodies diluted at 4 μg/ml and several consecutive 1:4 dilutions in PBS. After washing, the plates were developed by incubation for 1 h with goat HRP-conjugated anti-mouse IgG (Jackson ImmunoReseach) (at 0.8 μg/ml in blocking buffer) and by adding 100 μl of HRP chromogenic substrate (ABTS solution, Invitrogen). […] Background values given by incubation of PBS alone in coated wells were subtracted. […] Threshold values for reactivity were determined by using control antibodies mGO53 (negative), eiJB40 (low positive), and ED38 (high positive).

Binder	binding result
B1	binds
B2	binds
B3	binds
B4	binds

target: T1, YU2 gp120; experiment: ELISA, column Binding; remark: another data set of the same source
Method: as §1

Binder	binding result
B5	binds
B6	binds

target: T2, YU-2 gp140 (HIV-1 YU2, UniProt P35961 32-670); experiment: SPR, gp140 on chip, IgG injected
T2 construct: domain: gp140; also called YU2 gp140 trimer

Binder	Kd [nM]	koff [s⁻¹]	kon [M⁻¹ s⁻¹]
B7	0.315	1.44e-05	45900
B8	16.5	0.00109	65900
B9	113	0.00174	15500
B10	12	0.000581	48300
B11		3.44e-07	91800
B12	34.2	0.00162	47400
B13	34.3	0.00167	48800
B14	6.81	0.000186	27300
B15	6.54	0.000199	30400
B16	57.8	0.000755	13100
B17	88.1	0.00141	16000
B18	175	0.00198	11300
B19	6.75	0.000287	42600

target: T2, YU-2 gp140; experiment: SPR, gp140 on chip, IgG injected; minus sign of the exponent missing in print (kd/ka gives 3.75e-12)

Binder	Kd [nM]
B11	0.00375
